According to paper doi:10.1101/2024.12.10.627789:

Target: CAM1
Test: ITC

Substance CBD peptide of eEF2K has a Kd of 255 nM.
